# Experiments:
# [1] = target: 003m-P215S-1×Fibritin (RSV); experiment: flow cytometry, Expi293F cells, Lipofectamine 2000-mRNA
# [2] = target: 003m-P215S-1×Fibritin-1N (RSV); experiment: as above
# 003m-P215S-1×GCN4t (RSV) [3] = experiment: as above
# [4] = target: 003m-P215S-1×GCN4t-1,2,3N; experiment: as above
# 003m-P215S-1×GCN4t-1,2N = experiment: as above
# 003m-P215S-1×GCN4t-1,3N = experiment: as above
# 003m-P215S-1×GCN4t-1N = experiment: as above
# 003m-P215S-1×GCN4t-2,3N = experiment: as above
# 003m-P215S-1×GCN4t-2N = experiment: as above
# 003m-P215S-1×GCN4t-3N = experiment: as above
# 003m-P215S-1×GCN4t (RSV) [5] = experiment: as above; remark: listed apart in the source
# [6] = target: 003m-P215S-DELL-1×GCN4t (RSV); experiment: as above
# [7] = target: 003m-P215S-KST-1×GCN4t (RSV); experiment: as above
# [8] = target: 003m-P215S-NAG-1×GCN4t (RSV); experiment: as above
# 003m-P215S-1×GCN4t (RSV) [9] = experiment: as above; remark: listed apart in the source
# [10] = target: 007m-Cys-P215S-1×GCN4t (RSV); experiment: as above
# [11] = target: 008m-Cys-P215S-1×GCN4t (RSV); experiment: as above
# [12] = target: 009m-Cys-P215S-1×GCN4t (RSV); experiment: as above
# [13] = target: 010m-Cys-P215S-1×GCN4t (RSV); experiment: as above
# 011m-Cys-P215S-1×GCN4t = experiment: as above
# 012m-Cys-P215S-1×GCN4t = experiment: as above
# 013m-Cys-P215S-1×GCN4t = experiment: as above
# 007m-Cys-ΔCys (RSV) = experiment: flow cytometry, Expi293F cells transfected with the antigen's mRNA
# 007m-DS (RSV) = experiment: as above
# 008m-Cys (RSV) = experiment: as above
# 008m-Cys-ΔCys (RSV) = experiment: as above
# 008m-DS (RSV) = experiment: as above
# 009m-Cys (RSV) = experiment: as above
# 009m-DS (RSV) = experiment: as above
# 010m-Cys (RSV) = experiment: as above
# 010m-Cys-ΔCys (RSV) = experiment: as above
# 010m-DS (RSV) = experiment: as above
# 003m-1×GCN4t (RSV) = experiment: as above
# 003m-2×GCN4t (RSV) = experiment: as above
# DS-Cav1 (RSV) = experiment: as above
# DS-Cav1-1×GCN4t (RSV) = experiment: as above
# DS-Cav1-2×GCN4t (RSV) = experiment: as above
# [14] = target: 003m-P215S-ΔF111-1×GCN4t (RSV); experiment: flow cytometry, Expi293F cells, mRNA-LNP (RL151); row 003m-P215S-ΔF111-1×GCN4t
# 003m-P215S-1×GCN4t (RSV) [15] = experiment: flow cytometry, Expi293F cells, Lipofectamine 2000-mRNA; row 003M-P215S-1×GCNt (ORIG)
# 003m-P215S-1×GCN4t (RSV) [16] = experiment: flow cytometry, Expi293F cells, Lipofectamine 2000-mRNA; row 003m-P215S-1×GCN4t-opti1
# 003m-P215S-1×GCN4t (RSV) [17] = experiment: flow cytometry, Expi293F cells, Lipofectamine 2000-mRNA; row 003m-P215S-1×GCN4t-opti5
# 003m-P215S-1×GCN4t (RSV) [18] = experiment: flow cytometry, Expi293F cells, Lipofectamine 2000-mRNA; row 003m-P215S-1×GCN4t (ORIG)
substance,measurement,setting,value
AM14-AF488 (antibody),MFI,[1],22300
same,MFI,[2],242000
same,MFI,003m-P215S-1×GCN4t (RSV) [3],4870
same,MFI,[4],89600
same,MFI,"003m-P215S-1×GCN4t-1,2N",58400
same,MFI,"003m-P215S-1×GCN4t-1,3N",71000
same,MFI,003m-P215S-1×GCN4t-1N,37400
same,MFI,"003m-P215S-1×GCN4t-2,3N",39100
same,MFI,003m-P215S-1×GCN4t-2N,28800
same,MFI,003m-P215S-1×GCN4t-3N,25100
same,MFI,003m-P215S-1×GCN4t (RSV) [5],21600
same,MFI,[6],31400
same,MFI,[7],33800
same,MFI,[8],45700
same,MFI,003m-P215S-1×GCN4t (RSV) [9],6700
same,MFI,[10],7680
same,MFI,[11],9780
same,MFI,[12],6450
same,MFI,[13],8650
same,MFI,011m-Cys-P215S-1×GCN4t,7710
same,MFI,012m-Cys-P215S-1×GCN4t,9390
same,MFI,013m-Cys-P215S-1×GCN4t,7930
same,MFI,007m-Cys-ΔCys (RSV),430000
same,MFI,007m-DS (RSV),144000
same,MFI,008m-Cys (RSV),258000
same,MFI,008m-Cys-ΔCys (RSV),181000
same,MFI,008m-DS (RSV),139000
same,MFI,009m-Cys (RSV),247000
same,MFI,009m-DS (RSV),147000
same,MFI,010m-Cys (RSV),333000
same,MFI,010m-Cys-ΔCys (RSV),153000
same,MFI,010m-DS (RSV),107000
same,MFI,003m-1×GCN4t (RSV),6550
same,MFI,003m-2×GCN4t (RSV),434000
same,MFI,DS-Cav1 (RSV),108000
same,MFI,DS-Cav1-1×GCN4t (RSV),923
same,MFI,DS-Cav1-2×GCN4t (RSV),437
same,MFI,[14],821
same,MFI,003m-P215S-1×GCN4t (RSV) [15],2560
same,MFI,003m-P215S-1×GCN4t (RSV) [16],3380
same,MFI,003m-P215S-1×GCN4t (RSV) [17],2980
same,MFI,003m-P215S-1×GCN4t (RSV) [18],4150
D25-AF488 (antibody),MFI,[1],23000
same,MFI,[2],235000
same,MFI,003m-P215S-1×GCN4t (RSV) [3],10400
same,MFI,[4],147000
same,MFI,"003m-P215S-1×GCN4t-1,2N",100000
same,MFI,"003m-P215S-1×GCN4t-1,3N",122000
same,MFI,003m-P215S-1×GCN4t-1N,59400
same,MFI,"003m-P215S-1×GCN4t-2,3N",70700
same,MFI,003m-P215S-1×GCN4t-2N,54000
same,MFI,003m-P215S-1×GCN4t-3N,43400
same,MFI,003m-P215S-1×GCN4t (RSV) [5],32800
same,MFI,[6],35700
same,MFI,[7],31600
same,MFI,[8],33900
same,MFI,003m-P215S-1×GCN4t (RSV) [9],12200
same,MFI,[10],12800
same,MFI,[11],15700
same,MFI,[12],11500
same,MFI,[13],13400
same,MFI,011m-Cys-P215S-1×GCN4t,10300
same,MFI,012m-Cys-P215S-1×GCN4t,15800
same,MFI,013m-Cys-P215S-1×GCN4t,14600
same,MFI,007m-Cys-ΔCys (RSV),369000
same,MFI,007m-DS (RSV),159000
same,MFI,008m-Cys (RSV),196000
same,MFI,008m-Cys-ΔCys (RSV),173000
same,MFI,008m-DS (RSV),150000
same,MFI,009m-Cys (RSV),199000
same,MFI,009m-DS (RSV),154000
same,MFI,010m-Cys (RSV),252000
same,MFI,010m-Cys-ΔCys (RSV),136000
same,MFI,010m-DS (RSV),118000
same,MFI,003m-1×GCN4t (RSV),12100
same,MFI,003m-2×GCN4t (RSV),173000
same,MFI,DS-Cav1 (RSV),145000
same,MFI,DS-Cav1-1×GCN4t (RSV),1790
same,MFI,DS-Cav1-2×GCN4t (RSV),1170
same,MFI,[14],682
same,MFI,003m-P215S-1×GCN4t (RSV) [15],3840
same,MFI,003m-P215S-1×GCN4t (RSV) [16],5680
same,MFI,003m-P215S-1×GCN4t (RSV) [17],4620
same,MFI,003m-P215S-1×GCN4t (RSV) [18],8390
